The source of these data is patent US20150246947A1 (BAXALTA, published 2015).

Read-outs that look alike come from different tables or passages of the source.

For assay [1], the target named is T1, human Protein S (UniProt P07225 42-676).
T1 chain: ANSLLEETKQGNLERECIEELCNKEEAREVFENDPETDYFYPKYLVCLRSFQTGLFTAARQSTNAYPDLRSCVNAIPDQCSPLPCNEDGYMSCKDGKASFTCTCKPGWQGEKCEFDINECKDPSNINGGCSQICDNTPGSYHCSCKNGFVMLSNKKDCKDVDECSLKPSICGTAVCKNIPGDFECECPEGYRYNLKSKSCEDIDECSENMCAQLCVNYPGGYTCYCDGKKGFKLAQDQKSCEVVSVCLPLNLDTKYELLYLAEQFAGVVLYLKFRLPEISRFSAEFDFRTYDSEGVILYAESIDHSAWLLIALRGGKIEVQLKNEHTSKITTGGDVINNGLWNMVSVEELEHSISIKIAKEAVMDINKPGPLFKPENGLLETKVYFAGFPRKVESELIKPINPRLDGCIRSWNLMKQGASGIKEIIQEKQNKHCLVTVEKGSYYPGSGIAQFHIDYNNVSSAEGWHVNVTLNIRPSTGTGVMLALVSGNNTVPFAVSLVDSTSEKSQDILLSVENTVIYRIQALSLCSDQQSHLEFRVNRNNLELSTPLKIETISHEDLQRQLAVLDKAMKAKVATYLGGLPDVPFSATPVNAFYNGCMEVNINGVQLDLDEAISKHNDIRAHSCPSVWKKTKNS
The experiment in a line: LANCE competition. Summed up:
(§1)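 A homogeneous time-resolved FRET (LANCE) competition format paired europium-labelled Protein S and ULight-labelled streptavidin with a biotinylated tracer peptide, against which unlabelled test peptide was titrated three-fold. With final concentrations of 10 nM Protein S, 100 nM streptavidin and 300 nM tracer in 50 µl, or 2 nM Protein S and 60 nM tracer when a Tecan F500 was used, samples stood 1 hour at room temperature. Emission was read at 665 nm with excitation at 340 nm. Non-linear regression of these signals gave the IC50.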

Assay [2] addresses T1, human Protein S. Put plainly: LANCE competition. The method in brief: as §1
On the technique in general: TR-FRET usually uses a lanthanide donor and a delayed reading to cut background.

Broadly, the IC50 is the point on the concentration scale where inhibition reaches its midpoint. Read a low IC50 as higher potency.

B1: JBS3289 (peptide)
chain: Ac-NMYVSAGWYNYNEDTYEEFY-NH2
In turn, B1 gave an IC50 in assay [1] of 2.5 nM.

B2: JBS3291 (peptide)
chain: Ac-EATVSIGWYDYNKDEYYEFY-NH2
In turn, B2 displayed an IC50 in assay [1] of 8 nM.

B3: JBS3303 (peptide)
chain: Ac-VIEVSAGWYDYNEDKYYEFW-NH2
For B3, the IC50 in assay [1] is 1.7 nM.

B4: JBS3253 (peptide)
chain: Ac-EYTVSAGWYNYNADEYYEFE-NH2
In turn, B4 registered an IC50 in assay [1] of 2.8 nM.

B5: JBS3304 (peptide)
chain: Ac-VFYVSAGWYDYNDDKYYEFW-NH2
B5: the IC50 in assay [1] stood at 1.5 nM.

B6: JBS3256 (peptide)
chain: Ac-YGIVEAGWYEYNTDEYIEFW-NH2
With B6, the IC50 in assay [1] is 1.7 nM.

B7: JBS3279 (peptide)
chain: Ac-YNIVSAGWYDYNKDTYYEFF-NH2
With B7, the IC50 in assay [1] came to 1.5 nM.

B8: JBS3244 (peptide)
chain: Ac-EYYVSAGWYDYNSDTYQEFI-NH2
Molecule B8 had an IC50 in assay [2] of 4.7 nM.

B9: JBS3299 (peptide)
chain: Ac-KVEVSAGWYDYNKDVYYEFE-NH2
B9 displayed an IC50 in assay [1] of 2 nM.

B10: JBS3248 (peptide)
chain: Ac-EYYVSAGWYDYNYDVYTEFE-NH2
In the case of B10, the IC50 in assay [2] was 3.7 nM.

B11: JBS3288 (peptide)
chain: Ac-DVYVSAGWYDYNEDTYYEFS-NH2
In assay [1], B11 displayed an IC50 of 3.1 nM.

B12: JBS3302 (peptide)
chain: Ac-ITHVTAGWYDYNTDTYYEFI-NH2
Take B12: in assay [1], the 50% inhibitory concentration (IC50) came to 3.5 nM.

B13: JBS3293 (peptide)
chain: Ac-EAMVSAGWYDYMNDTYYEFE-NH2
As to B13, the 50% inhibitory concentration (IC50) in assay [1] was 2.1 nM.

B14: JBS3275 (peptide)
chain: Ac-EVHVSAGWYDYNNDTYYEFG-NH2
On to B14, for which, in assay [1], the IC50 came out at 1.2 nM.

B15: JBS3290 (peptide)
chain: Ac-NMEVSAGWYDYNSDTYHEFW-NH2
On to B15, for which the IC50 in assay [1] was 3.4 nM.

B16: JBS3301 (peptide)
chain: Ac-IIMVSAGWYDYNTDTYYEFE-NH2
B16 returned an IC50 in assay [1] of 1.3 nM.

B17: JBS3277 (peptide)
chain: Ac-EYEVSAGWYDYNNDVYNEFY-NH2
Turning to B17, the IC50 in assay [1] came to 3.4 nM.

B18: JBS3233 (peptide)
chain: Ac-EYYVSAGWYDYNNDTYYEFE-NH2
As for B18, the IC50 in assay [2] stood at 0.9 nM.

B19: JBS3272 (peptide)
chain: Ac-FEYVIAGWYDYNTDTYHEFN-NH2
Molecule B19 yielded a half-maximal inhibitory concentration (IC50) in assay [1] of 1.4 nM.

B20: JBS3285 (peptide)
chain: Ac-RYIVSAGWYDIIQDTYFEFY-NH2
For the molecule B20, the IC50 in assay [1] came to 1.2 nM.

B21: JBS3282 (peptide)
chain: Ac-EVEVSAGWYEYNTDTYYEFW-NH2
In assay [1], B21 had an IC50 of 4.1 nM.

B22: JBS3269 (peptide)
chain: Ac-FGIVSAGWYDYNTDTYYEPY-NH2
B22 showed an IC50 in assay [1] of 56.9 nM.

B23: JBS3271 (peptide)
chain: Ac-FEYVSAGWYDYNTDTYYEFY-NH2
As for B23, in assay [1], the concentration for half-maximal inhibition (IC50) worked out at 1.9 nM.

B24: JBS3305 (peptide)
chain: Ac-AYIVEAGWYDYNTDTYEEFW-NH2
Consider B24, for which, in assay [1], the IC50 amounted to 3.7 nM.

B25: JBS3254 (peptide)
chain: Ac-EYTISAGWYDYNTDMYYEFV-NH2
Consider B25, for which, in assay [1], the IC50 came to 1.6 nM.

B26: JBS3259 (peptide)
chain: Ac-EGYVSAGWYDYNKDIYLEFE-NH2
In the case of B26, the IC50 in assay [1] is 3.7 nM.

B27: JBS3261 (peptide)
chain: Ac-ESYVSAGWYDYNIDAYYEFY-NH2
Take B27: the IC50 in assay [1] came to 2 nM.

B28: JBS3294 (peptide)
chain: Ac-EHIVSAGWYDYNMDEYYEFW-NH2
As to B28, in assay [1], the IC50 amounted to 6.3 nM.

B29: JBS3270 (peptide)
chain: Ac-FGIISAGWYDYNEDAYSEFY-NH2
As to B29, the IC50 in assay [1] came out at 1.2 nM.

B30: JBS3309 (peptide)
chain: Ac-YVTVSAGWYDYNKDEYFEFY-NH2
Regarding B30, the IC50 in assay [1] came to 1.1 nM.

B31: JBS3308 (peptide)
chain: Ac-WYEVEIGWYDYNTDTYQEFY-NH2
Take B31: the IC50 in assay [1] was 1.4 nM.

B32: JBS3276 (peptide)
chain: Ac-EVEVSAGWYDYNDDKYYEFG-NH2
In the case of B32, in assay [1], the IC50 came out at 3 nM.

B33: JBS3278 (peptide)
chain: Ac-EYFVSAGWYDYNADIYYEFD-NH2
Take B33: the IC50 in assay [1] amounted to 1.1 nM.

B34: JBS3264 (peptide)
chain: Ac-EYIVEAGWYDINEDKYLEFY-NH2
For B34, in assay [1], the IC50 amounted to 2 nM.

B35: JBS3265 (peptide)
chain: Ac-EYSVSAGWYDYYNDTYYEFY-NH2
The molecule B35 came in with an IC50 in assay [1] of 1.4 nM.

B36: JBS3262 (peptide)
chain: Ac-ESYVSAGWYDYNTDTYYEFY-NH2
On to B36, for which, in assay [1], the IC50 turned out to be 1 nM.

B37: JBS3320 (peptide)
chain: EYYVSAGWYDYNTDTYYEFEC
For B37, the IC50 in assay [1] came to 0.5 nM.

B38: JBS3257 (peptide)
chain: Ac-YGIVSAGWYEYNTDIYEEFW-NH2
Consider B38, for which the IC50 in assay [1] came to 14.8 nM.

B39: JBS3286 (peptide)
chain: Ac-NYIVSAGWYDYNNDEYIEFY-NH2
The molecule B39 returned a half-inhibitory concentration (IC50) in assay [1] of 1.3 nM.

B40: JBS3298 (peptide)
chain: Ac-KMHVSIGWYDYNNDIYYEFY-NH2
As to B40, in assay [1], the IC50 turned out to be 1 nM.

B41: JBS3268 (peptide)
chain: Ac-ESIVSAGWYDYNTDTYYEFT-NH2
In assay [1], B41 had an IC50 of 1.5 nM.

B42: JBS3287 (peptide)
chain: Ac-EVYVSAGWYNYNEDAYYEFW-NH2
Take B42: the IC50 in assay [1] came to 1.2 nM.

B43: JBS3231 (peptide)
chain: Ac-EYYVSAGWYDYNTDTYYEFD-NH2
Take B43: the IC50 in assay [2] is 1.5 nM.

B44: JBS3292 (peptide)
chain: Ac-EFIVSAGWYDYNKDTYIEFE-NH2
Molecule B44 yielded an IC50 in assay [1] of 2.7 nM.

B45: JBS3252 (peptide)
chain: Ac-EEYVSAGWYDMNRDTYTEFY-NH2
Turning to B45, the half-inhibitory concentration (IC50) in assay [2] was 12.8 nM.

B46: JBS3300 (peptide)
chain: Ac-KDKVSAGWYDYNSDTYYEFT-NH2
Turning to B46, the IC50 in assay [1] worked out at 3.2 nM.

B47: JBS3267 (peptide)
chain: Ac-ESIVSAGWYDYNTDEYYEFF-NH2
The molecule B47 showed an IC50 in assay [1] of 1.7 nM.

B48: JBS3280 (peptide)
chain: Ac-YNEVSAGWYDMNEDTYYEFY-NH2
In assay [1], B48 registered an IC50 of 5.3 nM.

B49: JBS3255 (peptide)
chain: Ac-EYTASAGWYDYNSDTYYEFE-NH2
As for B49, the IC50 in assay [1] was 9.5 nM.

B50: JBS3307 (peptide)
chain: Ac-HYNVSAGWYDYNNDEYFEFY-NH2
For B50, the IC50 in assay [1] came out at 1.4 nM.

B51: JBS3219 (peptide)
chain: Ac-EYTVSAGWYDYNNDIYFEFY-NH2
As to B51, the IC50 in assay [2] was 1.1 nM.

B52: JBS3266 (peptide)
chain: Ac-EYSVSAGWYDYNTDVYYEFE-NH2
Turning to B52, in assay [1], the 50% inhibitory concentration (IC50) came out at 1.6 nM.
